Assays:
[1] = molecular target: GST:Gli1 fragment, zinc finger DNA binding region (UniProt P08151)
Chain of GST:Gli1 fragment, zinc finger DNA binding region (P08151 235-387): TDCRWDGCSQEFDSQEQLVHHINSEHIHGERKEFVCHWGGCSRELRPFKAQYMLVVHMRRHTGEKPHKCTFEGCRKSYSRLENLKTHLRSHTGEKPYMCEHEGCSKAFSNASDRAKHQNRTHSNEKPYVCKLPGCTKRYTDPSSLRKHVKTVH

Chain of GST:Gli1 (P08151 whole entry): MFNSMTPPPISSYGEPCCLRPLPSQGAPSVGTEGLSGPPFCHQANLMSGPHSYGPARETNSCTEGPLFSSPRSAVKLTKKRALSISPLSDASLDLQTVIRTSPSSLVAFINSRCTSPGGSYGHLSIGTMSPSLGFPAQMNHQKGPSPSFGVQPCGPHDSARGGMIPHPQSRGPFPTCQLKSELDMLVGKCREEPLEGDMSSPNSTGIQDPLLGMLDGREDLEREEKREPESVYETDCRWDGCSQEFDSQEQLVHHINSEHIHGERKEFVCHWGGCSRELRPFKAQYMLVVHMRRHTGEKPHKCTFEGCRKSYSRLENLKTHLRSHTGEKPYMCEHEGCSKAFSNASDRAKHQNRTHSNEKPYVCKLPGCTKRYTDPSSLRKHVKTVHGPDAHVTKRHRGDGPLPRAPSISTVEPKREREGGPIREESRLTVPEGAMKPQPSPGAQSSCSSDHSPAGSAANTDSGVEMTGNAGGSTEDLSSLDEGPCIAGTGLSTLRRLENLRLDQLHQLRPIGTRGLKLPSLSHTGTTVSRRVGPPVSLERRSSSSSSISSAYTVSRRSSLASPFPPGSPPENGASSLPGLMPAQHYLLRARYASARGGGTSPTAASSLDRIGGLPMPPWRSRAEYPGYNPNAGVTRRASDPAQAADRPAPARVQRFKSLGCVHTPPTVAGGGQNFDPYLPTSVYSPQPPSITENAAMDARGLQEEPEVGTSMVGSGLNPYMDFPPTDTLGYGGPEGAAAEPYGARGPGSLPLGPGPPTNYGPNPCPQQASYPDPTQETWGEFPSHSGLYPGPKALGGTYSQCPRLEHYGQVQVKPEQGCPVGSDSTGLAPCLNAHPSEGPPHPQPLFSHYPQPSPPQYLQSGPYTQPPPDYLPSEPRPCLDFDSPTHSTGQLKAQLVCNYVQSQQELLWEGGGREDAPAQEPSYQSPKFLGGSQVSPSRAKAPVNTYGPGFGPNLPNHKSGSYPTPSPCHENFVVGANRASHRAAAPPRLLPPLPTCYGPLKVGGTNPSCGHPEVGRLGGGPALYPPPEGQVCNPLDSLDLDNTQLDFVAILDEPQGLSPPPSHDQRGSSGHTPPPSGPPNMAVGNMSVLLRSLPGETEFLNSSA

B1: recombinant HIS:aPKC (enzyme, UniProt P41743 2-596, looked up, species assumed)
Protein kinase C iota type: PTQRDSSTMSHTVAGGGSGDHSHQVRVKAYYRGDIMITHFEPSISFEGLCNEVRDMCSFDNEQLFTMKWIDEEGDPCTVSSQLELEEAFRLYELNKDSELLIHVFPCVPERPGMPCPGEDKSIYRRGARRWRKLYCANGHTFQAKRFNRRAHCAICTDRIWGLGRQGYKCINCKLLVHKKCHKLVTIECGRHSLPQEPVMPMDQSSMHSDHAQTVIPYNPSSHESLDQVGEEKEAMNTRESGKASSSLGLQDFDLLRVIGRGSYAKVLLVRLKKTDRIYAMKVVKKELVNDDEDIDWVQTEKHVFEQASNHPFLVGLHSCFQTESRLFFVIEYVNGGDLMFHMQRQRKLPEEHARFYSAEISLALNYLHERGIIYRDLKLDNVLLDSEGHIKLTDYGMCKEGLRPGDTTSTFCGTPNYIAPEILRGEDYGFSVDWWALGVLMFEMMAGRSPFDIVGSSDNPDQNTEDYLFQVILEKQIRIPRSLSVKAASVLKSFLNKDPKERLGCHPQTGFADIQGHPFFRNVDWDMMEQKQVVPPFKPNISGEFGLDNFDSQFTNEPVQLTPDDDDIVRKIDQSEFEGFEYINPLLMSAEECV
modifications: His tag
B1 was tested, and the “in vitro kinase reaction” value [1] was “aPKC phosphorylates recombinantly expressed human Gli1 DNA-binding domain”, the “in vitro kinase reaction ([g-32P]ATP, SDS-PAGE, phosphor screen)” value [1] was “with the majority of the phosphorylation occurring in the zinc finger DNA binding region of Gli1” and the “in vitro kinase reaction ([g-32P]ATP, SDS-PAGE, phosphor screen)” value (GST:Gli1) was “aPKC phosphorylates Gli1 (FIG. 3i)”.

From patent US20120283194
